{
  "source": "patent US20190093159",
  "key": {"nucleosomes with H4K12ac": {"molecular_target": "nucleosomes with H4K12ac (UniProt P62805)"}, "[1]": {"system": "H3Kac5-containing nucleosomes (H3 K9/14/18/23/27ac)"}, "[2]": {"molecular_target": "H4Kac5-containing nucleosomes (H4 K5/8/12/16/20ac) (UniProt P62805)"}, "wt nucleosomes": {"molecular_target": "wt nucleosomes (UniProt P62805)"}},
  "data": [
    {"substance": "recombinant full-length human p300", "values": [
      {"measurement": "H3 acetylation (α-H3K18ac pulldown)", "setting": "nucleosomes with H4K12ac", "result": "This effect was dependent on the exact position of the mark within the tail and was most pronounced for H4K12ac"},
      {"measurement": "pulldown efficiency with α-H4K5ac antibody (% input)", "setting": "nucleosomes with H4K12ac", "result": 4.4, "unit": "% input"},
      {"measurement": "H4 acetylation (α-H4K5ac pulldown) compared to wt", "setting": "[1]", "result": "6-fold increase compared to wt"},
      {"measurement": "H3 acetylation (α-H3K18ac pulldown) compared to wt", "setting": "[2]", "result": "13-fold compared to wt"},
      {"measurement": "pulldown with α-H3K18ac antibody (% input), with AcCoA", "setting": "wt nucleosomes", "result": "an increase in pulldown from 0.3% to about 4% input"},
      {"measurement": "pulldown with α-H3K18ac antibody (% input), without AcCoA", "setting": "wt nucleosomes", "result": "an increase in pulldown from 0.3% to about 4% input"},
      {"measurement": "pulldown with α-H4K5ac antibody (% input), with AcCoA", "setting": "wt nucleosomes", "result": "0.5 to 0.9", "unit": "% input"},
      {"measurement": "pulldown with α-H4K5ac antibody (% input), without AcCoA", "setting": "wt nucleosomes", "result": "0.5 to 0.9", "unit": "% input"}
    ]}
  ]
}
